From US20090203706A1, “LYSINE-BASED POLYMERIC LINKERS” (priority 2006, published 2009)

Test: Rate of hydrolysis of PEG prodrugs in rat plasma (HPLC)
Type: in vitro ADME
Settings: 37° C., disappearance of PEG derivative
Description: The rates of hydrolysis were obtained by employing a C8 reversed phase column (Zorbax® SB-C8) using a gradient mobile phase made of (a) 0.1 M triethylammonium acetate buffer and (b) acetonitrile. A flow rate of 1 mL/min was used, and chromatograms were monitored using a UV detector. For hydrolysis in buffer, PEG derivatives were dissolved in 0.1 M pH 7.4 PBS at a concentration of 5 mg/mL, while for hydrolysis in plasma, the derivatives were dissolved in distilled water at a concentration of 20 mg/100 μL and 900 μL of rat plasma was added to this solution. The mixture was vortexed for 2 min and divided into 2 mL glass vials with 100 μL of the aliquot per each vial. The solutions were incubated at 37° C. for various periods of time. A mixture of methanol-acetonitrile (1:1, v/v, 400 μL) was added to a vial at the proper interval and the mixture was vortexed for 1 min, followed by filtration through […] filter membrane (optionally followed by a second filtration through […] filter membrane). An aliquot of 20 μL of the filtrate was injected into the HPLC. On the basis of the peak area, the amounts of native compound and PEG derivative were estimated, and the half-life of each compound in different media was calculated using linear regression analysis from the disappearance of PEG derivative.

PEG-[Lys (DGA-SCH AF)2]2 [Compound 12a] showed a t1/2α of hydrolysis of 5 h and a t1/2β of hydrolysis of 15 h.
